The record followed here is patent US20110262922, “APTAMER SANDWICH ASSAYS” (POSCO, published 2011).

For data set [1], the target named is T1, ERBB2 (HER2) (UniProt P04626 P04626:23-652). Briefly: filter; +/-0.39; same buffer, 37 C. The note with it: tags: His-tagged; R&D Systems Cat# 1129-ER; label: 5'-32P. On the procedure:
(§1) Aptamers identified using the above SELEX process were amplified by PCR and cloned as described above. Up to fifty randomly picked plasmid clones were sequenced. To verify that cloned aptamers bind to IR or ERBB2, aptamers that had same sequence in the aptamer pool were tested for binding affinity. Briefly, aptamers were incubated with various concentrations of target His-tagged proteins and the target His-tagged proteins were captured on Talon bead. Radio labeled aptamers that were bound to target proteins were then detected by phosphoimager.
(§2) Specifically, Aptamer-protein equilibrium dissociation constants (Kd's) were determined by the nitrocellulose-filter binding method as described by White et al. in Mol. Ther., 2001, 4(6), 567-73. For all binding assays, aptamers were dephosphorylated using alkaline phosphatase (New England Biolab) and labeled at the 5′-end using T4 polynucleotide kinase (New England Biolabs, Beverly, Mass.) and [γ³²P]ATP (Amersham Pharmacia Biotech, Piscataway, N.J.) as described by Fitzwater et al., in Methods Enzymol, 1996, 267, 275-301. […] The fraction of bound aptamer was quantified with a PhosphorImager (Fuji FLA-5100 Image Analyzer, Tokyo, Japan). […]

Data set [2] has as its target T2, Insulin receptor (IR) (Homo sapiens, UniProt P06213-2;P06213-2 P06213-2:28-746,P06213-2:751-944). Description: filter; +/-0.26; same buffer, 5 mM MgCl2, 37 C. As to conditions: tags: His-tagged; R&D Systems Cat# 1544-IR; chain copies: 2; label: 5'-32P. How it is done:
as §1, §2

Data set [3] deals with T1, ERBB2 (HER2). Description: filter; +/-0.12; 40 mM HEPES pH 7.5, 120 mM NaCl, 5 mM KCl, 5 mM MgCl2, 0.002% tween-20, 37 C. As to conditions: tags: His-tagged; R&D Systems Cat# 1129-ER; label: 5'-32P. On the procedure:
as §1, §2

Data set [4] addresses T2, Insulin receptor (IR). Briefly: filter; +/-0.78; same buffer, 5 mM MgCl2, 37 C. As to conditions: tags: His-tagged; R&D Systems Cat# 1544-IR; chain copies: 2; label: 5'-32P. On the procedure: as §1, §2
Data set [5] deals with T2, Insulin receptor (IR). Description: filter; +/-0.28; same buffer, 5 mM MgCl2, 37 C. The note with it: tags: His-tagged; R&D Systems Cat# 1544-IR; chain copies: 2; label: 5'-32P. On the procedure:
as §1, §2

Data set [6] deals with T1, ERBB2 (HER2). Description: filter; +/-1.25; same buffer, 37 C. As to conditions: tags: His-tagged; R&D Systems Cat# 1129-ER; label: 5'-32P. How it is done: as §1, §2
The target in data set [7] is T1, ERBB2 (HER2). Description: filter; +/-0.20; same buffer, 37 C; not competing with ERBB2-12. As to conditions: tags: His-tagged; R&D Systems Cat# 1129-ER; label: 5'-32P.
Data set [8] deals with T2, Insulin receptor (IR). Description: FP; placeholder. The note with it: tags: His-tagged; R&D Systems Cat# 1544-IR; chain copies: 2; label: 5'-32P.
Data set [9] concerns the target T2, Insulin receptor (IR). Briefly: filter; +/-1.08; 40 mM HEPES pH 7.5, 120 mM NaCl, 5 mM KCl, 5 mM MgCl2, 0.002% tween-20, 37 C; not competing with IR-13. As to conditions: tags: His-tagged; R&D Systems Cat# 1544-IR; chain copies: 2; label: 5'-32P.

T2 sequence (P06213 other isoform, or with tags, fused parts or gaps, chain 1 of 2): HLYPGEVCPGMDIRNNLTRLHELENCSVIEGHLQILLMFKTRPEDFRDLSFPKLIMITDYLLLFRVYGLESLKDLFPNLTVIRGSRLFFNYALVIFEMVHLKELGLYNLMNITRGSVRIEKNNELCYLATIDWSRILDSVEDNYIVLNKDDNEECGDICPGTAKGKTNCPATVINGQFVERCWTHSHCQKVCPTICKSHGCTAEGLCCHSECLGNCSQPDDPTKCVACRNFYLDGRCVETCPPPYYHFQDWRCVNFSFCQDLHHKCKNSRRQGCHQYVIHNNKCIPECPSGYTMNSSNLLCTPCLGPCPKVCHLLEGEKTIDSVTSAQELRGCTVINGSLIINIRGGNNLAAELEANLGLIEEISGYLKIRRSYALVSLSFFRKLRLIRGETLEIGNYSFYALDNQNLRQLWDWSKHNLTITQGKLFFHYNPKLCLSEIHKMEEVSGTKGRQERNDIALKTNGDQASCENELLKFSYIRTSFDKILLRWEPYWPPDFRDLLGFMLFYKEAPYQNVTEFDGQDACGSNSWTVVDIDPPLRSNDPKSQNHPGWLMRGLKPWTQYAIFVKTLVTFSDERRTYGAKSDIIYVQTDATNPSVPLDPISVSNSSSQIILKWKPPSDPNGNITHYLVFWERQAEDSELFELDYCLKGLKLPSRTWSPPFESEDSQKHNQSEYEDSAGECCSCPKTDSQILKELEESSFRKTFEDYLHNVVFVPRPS
T2 sequence (P06213 763-956, chain 2 of 2): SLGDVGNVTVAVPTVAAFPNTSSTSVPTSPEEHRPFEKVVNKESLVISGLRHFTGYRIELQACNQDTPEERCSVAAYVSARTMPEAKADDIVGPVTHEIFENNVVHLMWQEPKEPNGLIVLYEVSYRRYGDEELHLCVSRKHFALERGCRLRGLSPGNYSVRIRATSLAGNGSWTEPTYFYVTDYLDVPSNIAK

B1: ERBB2-10 (ssDNA)
DNA: GAGTGACCGTCTGCCTGGTTAGACTGAACGCACTGAGGGCCGCAGCCTATCTGAAGGCAGCCACACCACCAGCC
Turning to B1, binding with ERBB2 (HER2) [1] was characterised by a dissociation constant (Kd) of 3.7 nM.

B2: IR-11 (ssDNA)
DNA: GAGTGACCGTCTGCCTGTAAGGTTTAAGCTTGGCCTAATGGTGCTATCAGGCTCAGCAGCCACACCACCAGCC
B2: in the data set with Insulin receptor (IR) [2], the dissociation constant Kd turned out to be 5.48 nM.

B3: ERBB2-12 (ssDNA)
DNA: GAGTGACCGTCTGCCTGTCCTGGCATGTTCGATGGAGGCCTTTGATTACAGCCCAGACAGCCACACCACCAGCC
B3 yielded a Kd with ERBB2 (HER2) [3] of 0.78 nM.

B4: IR-13 (ssDNA)
DNA: GAGTGACCGTCTGCCTGTTATCCACTATGGCTTCTCATTCAAATAAGTGCGATCGATCAGCCACACCACCAGCC
The molecule B4 gave a dissociation constant (Kd) in the data set with Insulin receptor (IR) [4] of 4.83 nM.

B5: IR-25 (ssDNA)
DNA: GAGTGACCGTCTGCCTGAGATCCGACTGTTTACTGTTTAACAGCCGGCTGATGGACCCAGCCACACCACCAGCC
B5 yielded an equilibrium dissociation constant (Kd) with Insulin receptor (IR) [5] of 13.3 nM.

B6: ERBB2-19 (ssDNA)
DNA: GAGTGACCGTCTGCCTGATTAGATGAAAGCGCATTCCAACAACAGATAATCTGAGGGCAGCCACACCACCAGCC
Take B6: in the data set with ERBB2 (HER2) [6], the Kd was 15.8 nM.

B7: ERBB2-1 (ssDNA)
DNA: GAGTGACCGTCTGCCTGATGTTAGAGTTTGCCTGAGTGCCTCGTAAGGGCGTAACAACAGCCACACCACCAGCC
In the data set with ERBB2 (HER2) [7], B7 gave a Kd of 3.05 nM.

B8: IR-6 (ssDNA)
DNA: GAGTGACCGTCTGCCTGTGGGTACAGTCTTTAGCTTACACAGGCTCCTGAAGACGCACAGCCACACCACCAGCC
For B8, the dissociation constant Kd with Insulin receptor (IR) [8] and in the data set with Insulin receptor (IR) [9] was 4.6 nM each time.
